From PMC11754096

Molecular target: T-complex protein ring complex (TRiC), endogenous (human (endogenous in HEK293 cells)) (UniProt P17987)
Test: cryo-EM structure; in situ cryo-electron tomography of FIB-milled HEK Flp-In T-Rex 293 cells, template matching, subtomogram averaging and classification; open TRiC; untreated cells and cells treated with 100 µM HHT for 2 h

prefoldin (PFD), endogenous (complex)
percent of all TRiC with a single PFD (HHT-treated cells): 18%
percent of all TRiC with a single PFD (untreated cells): 12%
percent of all TRiC with two PFD (HHT-treated cells): 2%
percent of all TRiC with two PFD (untreated cells): 1%
